Assay results reported in the nanobody polyreactivity screen of Harvey et al. (2022).

experiment: yeast display, Sf9 membrane polyspecificity reagent, FACS + sequencing; frameworks hold sequencing errors
How it was run: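 Galactose induction of a Saccharomyces cerevisiae BJ5465 synthetic nanobody display library ran 36–48 hours. The cells were then stained for 1 hour at 4 °C with 10% biotinylated, detergent-solubilized Sf9 membrane reagent, pulled down on streptavidin microbeads and FACS-sorted into low and high (top ~1%) gates on expression and reagent-binding fluorescence. Labels for polyreactivity follow the gate of origin.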

Row | Sequence | polyreactivity (PSR sort gate)
1 | QVHLVESGGGLVQAGGSLRLSCAASGRILGDYAMGWYRQAPGKEREFVAAIDYNGGSTNYADSVKGRFTISRDNAKNTVYLQMNSLKPEDTAVYYCAAPGFPSRNGFGYWGQGTQVTVSS | low polyreactivity
2 | QVHLVESGGGLVQAGGSLRLSCAASGRILSLYAMGWYRQAPGKERELVASINWSDGSTYYADSVKGRFTISRDNAKNTVYLQMNSLKPEDTAVYYCNVDVSSYVAGYDYWGQGTQVTVSS | low polyreactivity
3 | QVHLVESGGGLVQAGGSLRLSCAASGRNFGYYARGWYRQAPVKERELVAAIDSSGGDTYYADSVKGRFTISRDNAKNSVYVQMNSLKPEDTAVFYCAAEYVAQAGYGVDYWGQGTEVTVSS | low polyreactivity
4 | QVHLVESGGGLVQAGGSLRLSCAASGRTFDLNAMGWYRQAPGKERELVAGISSSGGRTYYADSVKGRFTISRDNAKNTVYLQMNSLIPEDTAVYYCAKVYPSYVLRKYDYWGQGTQVTVSS | high polyreactivity
5 | QVHLVESGGGLVQAGGSLRLSCAASGRTFFQYAMGWYTQAPGKERELVAAIRWSDSTYYADSVKGRFTISRDNAKNTVYLQMNSLKPEDTAVYYCAKTYRYYRTMDYWGQGTQVTVSS | low polyreactivity
6 | QVHLVESGGGLVQAGGSLRLSCAASGRTFGWNVMGWYRPAPGKERELVAAISGSGGSTYYADSVKGRFTISRDNAKNPVYLQMNSLKPEDTAVYYCAALYGPGREYDYWGQVTQVTVSS | low polyreactivity
7 | QVHLVESGGGLVQAGGSLRLSCAASGRTFIFYAMRWYRQAPGKERELVATISRSAGSTYYADSVKGRFTISRDNAKNTVYLQMNSLKPEDTAVYYCATQSRHYRGGKYYYWGQGTQVSVSS | high polyreactivity
8 | QVHLVESGGGLVQAGGSLRLSCAASGRTFIGNAMGWYRQATGKERELVAGITWSGGRSYYADSVKGRFTISRDNAKNTVYLQMNSQKPEDTAVYYCGRAGQSSRMNYWGQGTQVTVSS | high polyreactivity
9 | QVHLVESGGGLVQAGGSLRLSCAASGRTFSAYAMGWYRQAPGKEREDVAAISRSGGSTYYADSVKGRFPISRDNAKNTVYLQMNILTPEDTAVSDCAVRWPSARIPVKLEDWGQGTQVTVSS | high polyreactivity
10 | QVHLVESGGGLVQAGGSLRLSCAASGRTFVQYAMGWSRQAPGTERELVAVISNGGTTYYADSVKGRFTISRDNAKNTVYLQMNSLKPEDTAVYYCAAKIITRRGGRYDYWGQGTQVTVSS | high polyreactivity
11 | QVHLVESGGGLVQAGGSLRLSCAASGRTFWNYAMGWYRQAPGKEREFVAVIRFSDGSTYYADSVKGRFTISRDNAKNTVYLQMNSLKPDDTAVYYCAAKGPRRWGSGFDYWGQGNQVTVSS | low polyreactivity
12 | QVHLVESGGGLVQAGGSLRLSCAASGRTFYANAMGWYIQAPGKERELVAAISTGGDGTYYADSVKGRFTISRDNAKNTVYLQMNSLKPEDTAVYYCAVRHRASGILYDYWGQGTQVTVSS | low polyreactivity
13 | QVHLVESGGGLVQAGGSLRLSCAASGRTFYDYAMGWYRQAPGKERELVAAITYSGGSTFYADSVKGRFTISRDNAKNTFYLQMNSLKPEDTAVYYCAAEVLRLVGAAEYDYWGQGTQVTVSS | low polyreactivity
14 | QVHLVESGGGLVQAGGSLRLSCAASGRTFYRNAMGWYRQAPGKERELVAAIRTRTGSTYYADSVKGRFTISRDNAKNTVYLQMNSLKPEDTAGYYCAALAWYPYYASWPVESDYWGQGTQVTVSS | high polyreactivity
15 | QVHLVESGGGLVQAGGSLRLSCAASGRTIDRNTMGWYRQAPVKERELVATITWSVGRTYYADSVKGRFTISRDNGKITVYVQMISMKPEDTGVYFCAAGIYAYKYESWGHGTQVTVSS | high polyreactivity
16 | QVHLVESGGGLVQAGGSLRLSCAASGRTIHSYAMGWYRQAPGKERELVAAINNGGGTYYADSVKGRFTISRDNAKNTVYLQMNSRKPEDTAVYYCAAATRKRIGSYYYWGQGTQVTVSS | high polyreactivity
17 | QVHLVESGGGLVQAGGSLRLSCAASGRTSIFNAMGWYRPAPGKERELVAAITARGASTYYADSVKGRFTISRDNAKNTVYLQKNSLKPDDTAVYYCAARDHAFRYYRNPFKGKYDYWGQGTQVTVSS | low polyreactivity
18 | QVHLVESGGGLVQAGGSLRLSCAASGSIFAGNAMGLSRQAPGKERELVAGISRSGGSTNYADSVKGRFTISRDNAKNSVYLQMNSLKPEDTAVYYCNTDPYSSAWYNYDYWGLGTQVTVSS | low polyreactivity
19 | QVHLVESGGGLVQAGGSLRLSCAASGSIFFVYAMGWYRQAPGKERELVAAISNDGSTNYADSVKGRFTISRDNAKNTVYLQMNSLKPEDTAVYYCAADPSLRQYAYFDYDYWGQGTQVTVSS | low polyreactivity
20 | QVHLVESGGGLVQAGGSLRLSCAASGSIFGDNTMGWYRQAPGKERELVAAISQSSGTSTYYADSVKGRFTISRDNAKNTVYFQMNSLKPEDTAVYYCAKDPHGSDFGYWGQVTQVTVSS | low polyreactivity
21 | QVHLVESGGGLVQAGGSLRLSCAASGSIFGSYAMGWYRQAPGKERELVAAITIADITYYADSVKGRFTISRDNAKNTVNLQMNSLKPEDTAVYYCNAYWGWRDSWYYYWGQGTQVTVSS | low polyreactivity

Row | Sequence | polyreactivity (PSR sort gate)
22 | QVHLVESGGGLVQAGGSLRLSCAASGSIFIVYTMGWYRQAPGKERELVAAISSGGITDYADSVKGRFTISRDNAKNTVYLQMNSLKPEDTAVYYWGQGTQVTVSS | low polyreactivity
23 | QVHLVESGGGLVQAGGSLRLSCAASGSIFRIYAMGWYRQAPGKERELVAAINAGGGRTYYADSVKGRFTISRDNAKNTVYLQMNSLKPEDNAVYFCAARHTEYRQESLYYWGQGTQVTVSS | low polyreactivity
24 | QVHLVESGGGLVQAGGSLRLSCAASGSIFSVYTRGWYRQAPGKERELVAAISTGGGSTYYADSVKGRFTISRDNAKNTVYLQMNSLKPEDTAVYYCATDYGWAPSYWYDSCGQGTQVTVSS | low polyreactivity
25 | QVHLVESGGGLVQAGGSLRLSCAASGSIFVLYAMGWYRQAPGKERELVAAISRGVGGTNYADSVKGRFTISRDNAKNTVYLQMNSLKPEDTAVYYCAADWLWAWHYYGAMDYWGQGTQVTVSS | high polyreactivity
26 | QVHLVESGGGLVQAGGSLRLSCAASGSIFVSNAMGWYRQAPGKERELVAAIRGVDSTYYADSVKGRFTISRDNAKNTVYLQMNSLKPEDTAVYYCATPGPGYTRYYYWGQGTQVTVSS | high polyreactivity
27 | QVHLVESGGGLVQAGGSLRLSCAASGSIFWYYGMGWYRQAPGKERELVASITSGGSTNYADSVKGRFSISRDNAKNTVYLQMNRLKPEDSAVYYCNTDDDSSSTGYYSWGQGTQVNVSS | low polyreactivity
28 | QVHLVESGGGLVQAGGSLRLSCAASGSIFYPYAMGWYRQAPGKERELVAAISGRGGNTYYADSVKGRFTISRDNAKNTVYFQMNSLKPEDTAVYYCAADRYYWSLYGYDYWGQGTQVTVSS | high polyreactivity
29 | QVHLVESGGGLVQAGGSLRLSCAASGSIIRYYAMGWYRQAPGKERELVAVITRGGSTYYADSVKGRFTISRDNAKSTVYLQMNSLKPEDTAVYYCAADYWPAGLDRGYWGQGTQVTVSS | low polyreactivity
30 | QVHLVESGGGLVQAGGSLRLSCAASGSILLRYAMGWYRQAPGKERELVAAIRTIGASTYYADSVKGRFTISRDNAKNTVYLQMNSLKPEDTAVYYCNAYLAEVLPLGKGRLYDYWGLGTQVTVSS | low polyreactivity
31 | QVHLVESGGGLVQAGGSLRLSCAASGSIYHNAMGWYRQAPGKERELVAAITSSGGRTYYADSVKGRFTISRDNAKNTVYLQMNSLKPEDTAVYYCNALAHQYHRYEFGYWGQGTQVTVSS | low polyreactivity
32 | QVHLVESGGGLVQAGGSLRLSCAASGSNFRSYAMGWYRQAPWKERELDAAISSSGGRTYYADSVKGRFTISRDNAKNTVYLQMNSVKPEDNAVYYCAAYRGGGYKYDYWGQGTQVTVSS | high polyreactivity
33 | QVHLVESGGGLVQAGGSLRLSCAASGSTFAVYAMGWYRQAPWKESELVAGISSRGGRTYYADSVKGRFTISRDNAKNTVYLQMNSLKPEDTAVYYCNVVYTYWRYYRWREYDYWGQGTQVTVSS | high polyreactivity
34 | QVHLVESGGGLVQAGGSLRLSCAASGSTFAYNAMGWYRTAPGKERELVAAISSSGGRTYYADSVKGRFTLSRDNAKNTVYLQMISLKPEDTAVYYCNAAYYYTYGYWGQGTEVTVSS | high polyreactivity
35 | QVHLVESGGGLVQAGGSLRLSCAASGSTFFYAMGWYRQAPRKERELVAAISWIDSLTYYADSVKGRFTISRDNEKITVYLQMNILKAEDTAFYYCAAEGQNEGYDYWGQGSQVTVSS | high polyreactivity
36 | QVHLVESGGGLVQAGGSLRLSCAASGSTFGSNAMGWYRQAPGKERELVAAITNGGSTNYADSVKGRFTISRDNAKNTVYLQMNSLKPDDTAVYYCNGDPQQSKLWTYFFGFPGYYWGQGTQVTVSS | low polyreactivity
37 | QVHLVESGGGLVQAGGSLRLSCAASGSTFILNAMGWYRQAPGKERELVATISSSDTSTYYADSVKGRFTISRDNAKNTVYLQMNSLKPEDTAVYYCNADYYTTSYLQRVYHYGVEYDYWGQGTQVTVSS | low polyreactivity
38 | QVHLVESGGGLVQAGGSLRLSCAASGSTFISYAMGWYRQAPGKERELVAAISRNGGRTYYADSVKGRFTISRDNAKNTVYLQMNSLKPEDTAVYYCAAAYNSYRFDYWGQGTQVTVSS | high polyreactivity
39 | QVHLVESGGGLVQAGGSLRLSCAASGSTFKPYTMGWYRQAPGKERELVAAITSRGTSTYYADSVKGRFKISRDNAKNTVYLQMNSLKPEDTEVYYCAARRPGTFSYGYWGQGTQVTVSS | high polyreactivity
40 | QVHLVESGGGLVQAGGSLRLSCAASGSTFKRYAMGWYRQAPGKERELVASISQRGGTTYYADSVKGRFTISRDNAKNTVYLQMNSLKPEDTAVYYCANGFGWTRTIYDYWGQGTQVTVSS | high polyreactivity
41 | QVHLVESGGGLVQAGGSLRLSCAASGSTFPANAMGRYRQAPGKERELVAAITSGGSTNYADSVKGRFTISRDNAKNTVYLQMNSLKPEDTAVYYCADESYQAHSFYVYYGYDYWGQGTQVTVSS | low polyreactivity
